# Laboratory results published in IntAct's records for PubMed 17158164.
# B1: TATA-box-binding protein (Homo sapiens), P20226 (parent)
# chain: MDQNNSLPPYAQGLASPQGAMTPGIPIFSPMMPYGTGLTPQPIQNTNSLSILEEQQRQQQQQQQQQQQQQQQQQQQQQQQQQQQQQQQQQQQQQQAVAAAAVQQSTSQQATQGTSGQAPQLFHSQTLTTAPLPGTTPLYPSPMTPMTPITPATPASESSGIVPQLQNIVSTVNLGCKLDLKTIALRARNAEYNPKRFAAVIMRIREPRTTALIFSSGKMVCTGAKSEEQSRLAARKYARVVQKLGFPAKFLDFKIQNMVGSCDVKFPIRLEGLVLTHQQFSSYEPELFPGLIYRMIKPRIVLLIFVSGKVVLTGAKVRAEIYEAFENIYPILKGFRKTT
# partner: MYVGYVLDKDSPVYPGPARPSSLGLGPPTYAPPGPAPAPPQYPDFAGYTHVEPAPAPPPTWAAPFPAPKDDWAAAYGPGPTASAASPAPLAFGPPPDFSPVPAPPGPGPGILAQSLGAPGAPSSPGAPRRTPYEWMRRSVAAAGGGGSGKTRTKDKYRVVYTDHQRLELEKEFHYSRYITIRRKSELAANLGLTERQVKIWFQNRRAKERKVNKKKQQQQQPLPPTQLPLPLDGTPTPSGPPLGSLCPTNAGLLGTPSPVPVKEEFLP
# Variants of: B1
# Settings: with cdx1_mouse Cdx1, P18111
row,effect of a mutation on the interaction,Variant
1,with no effect,MDQNNSLPPYAQGLASPQGAMTPGIPIFSPMMPYGTGLTPQPIQNTNSLSILEEQQRQQQQQQQQQQQQQQQQQQQQQQQQQQQQQQQQQQQQQQAVAAAAVQQSTSQQATQGTSGQAPQLFHSQTLTTAPLPGTTPLYPSPMTPMTPITPATPASESSGIVPQLQNIVSTVNLGCKLDLKTIALRARNAEYNPKRFAAVIMRIREPRTTALIFSSGKMVCTGAKSEEQSRLAARKYARVVQKLGFPAKFLDFKIQNMVGSCDVKFPIRLEGLVLTHQQFSSYEPELFPGLFYRMIKPRITLVIFVSGKVVLTGAKVRAEIYEAFENIYPILKGFRKTT [I292F;V301T;L303V]
